T1: CEACAM3 on transfected HeLa cells (human, UniProt P40198 35-252)
T1 construct: whole, on cells; also called HeLa-CEACAM3; HeLa C3
T1 sequence (looked up): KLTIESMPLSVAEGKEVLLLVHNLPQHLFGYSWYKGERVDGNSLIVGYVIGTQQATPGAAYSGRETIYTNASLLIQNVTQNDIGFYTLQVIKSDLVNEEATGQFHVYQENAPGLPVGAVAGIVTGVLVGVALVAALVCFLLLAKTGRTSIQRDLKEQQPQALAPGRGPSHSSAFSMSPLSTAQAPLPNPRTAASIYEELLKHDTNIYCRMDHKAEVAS

T2: CEACAM5 on transfected HeLa cells (human, UniProt P06731 35-685)
T2 construct: whole, on cells; also called HeLa-CEACAM5; HeLa C5
T2 sequence (looked up): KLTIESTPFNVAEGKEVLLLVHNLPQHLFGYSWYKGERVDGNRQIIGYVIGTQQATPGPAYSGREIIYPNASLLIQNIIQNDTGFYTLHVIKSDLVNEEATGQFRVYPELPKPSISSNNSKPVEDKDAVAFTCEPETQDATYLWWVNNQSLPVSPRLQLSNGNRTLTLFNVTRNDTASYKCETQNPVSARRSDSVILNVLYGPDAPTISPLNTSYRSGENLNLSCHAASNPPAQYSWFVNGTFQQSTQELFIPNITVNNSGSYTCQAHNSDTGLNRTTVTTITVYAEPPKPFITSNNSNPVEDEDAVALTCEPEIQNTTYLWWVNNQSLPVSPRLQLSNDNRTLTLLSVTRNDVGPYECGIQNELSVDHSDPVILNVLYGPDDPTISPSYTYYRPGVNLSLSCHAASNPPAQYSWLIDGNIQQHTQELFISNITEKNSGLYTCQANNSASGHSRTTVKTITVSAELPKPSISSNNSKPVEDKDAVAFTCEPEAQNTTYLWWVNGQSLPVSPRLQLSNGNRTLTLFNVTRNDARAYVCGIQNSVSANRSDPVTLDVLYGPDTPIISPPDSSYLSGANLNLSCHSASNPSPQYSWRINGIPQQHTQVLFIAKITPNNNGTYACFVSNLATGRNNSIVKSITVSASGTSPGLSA

T3: CEACAM8 on transfected HeLa cells (human, UniProt P31997 35-320)
T3 construct: whole, on cells; also called HeLa-CEACAM8; HeLa C8
T3 sequence (looked up): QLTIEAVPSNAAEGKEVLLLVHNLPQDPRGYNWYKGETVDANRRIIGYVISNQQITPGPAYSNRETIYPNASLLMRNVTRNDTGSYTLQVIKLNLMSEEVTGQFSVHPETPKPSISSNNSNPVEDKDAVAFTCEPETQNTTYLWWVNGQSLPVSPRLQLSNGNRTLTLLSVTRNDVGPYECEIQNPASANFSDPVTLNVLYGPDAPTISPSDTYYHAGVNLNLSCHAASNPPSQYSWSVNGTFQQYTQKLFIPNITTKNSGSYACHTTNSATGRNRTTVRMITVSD

T4: CEACAM6 on transfected HeLa cells (human, UniProt P40199 35-320)
T4 construct: whole, on cells; also called HeLa-CEACAM6; HeLa C6
T4 sequence (looked up): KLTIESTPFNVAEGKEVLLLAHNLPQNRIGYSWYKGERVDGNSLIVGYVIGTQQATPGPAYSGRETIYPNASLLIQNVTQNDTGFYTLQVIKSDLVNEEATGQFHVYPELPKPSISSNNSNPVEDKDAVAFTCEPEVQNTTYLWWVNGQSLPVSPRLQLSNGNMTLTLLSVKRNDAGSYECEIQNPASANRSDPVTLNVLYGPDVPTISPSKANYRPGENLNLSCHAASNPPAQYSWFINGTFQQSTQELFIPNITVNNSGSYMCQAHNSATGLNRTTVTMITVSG


How the values were obtained:
[1] = target: T1, CEACAM3 on transfected HeLa cells; test: flow cytometry titration, HeLa-CEACAM3 transfectants, anti-human IgG4 FITC
Method: (§1) FIGS. 31A and 31B show flow cytometry analyses of stable HeLa CEACAM1 (HeLa C1) transfectant, stable HeLa CEACAM3 transfectant (HeLa C3), stable HeLa CEACAM5 transfectant (HeLa C5), stable HeLa CEACAM6 transfectant (HeLa C6), and stable HeLa CEACAM8 transfectant (HeLa C8). FIG. 31A: 5×10\hat{ }4 indicated HeLa transfectants were washed with staining buffer and CP08H03/Vκ8 S29A (labeled “CP08”, left) or CEACAM1 antibody CM-24 was incubated at room temperature for 30 min, washed twice with staining buffer, and stained for anti-human IgG4 Fluorescein isothiocyanate (FITC) conjugated secondary antibody at room temperature for 20 min. Fluorescence intensities were determined by flow cytometry. Live cells were determined by 4′,6-diamidino-2-phenylindole (DAPI) staining as shown on the y-axis. Staining with the respective CEACAM1 antibody is shown on the x-axis. […]
(§2) The cervical adenocarcinoma cell line HeLa (ATCC No CCL-2) as well as transfected cell lines HeLaCEACAM1, HeLaCEACAM3, HeLaCEACAM5, HeLaCEACAM6 and HeLaCEACAM8 used for flow cytometry experiments were cultured at 37° C., 5.0% CO₂ in Dulbecco's modified Eagle's medium supplemented with 10% fetal bovine serum, penicillin (100 U/ml) and dihydrostreptomycin (100 μg/ml). […] Data were acquired with a Cytoflex flow cytometer (Invitrogen) and analyzed with FlowJo software (TreeStar, V7.6.5 for Windows).

[2] = target: T2, CEACAM5 on transfected HeLa cells; test: flow cytometry titration, HeLa-CEACAM5 transfectants, anti-human IgG4 FITC
Method: as §1, §2

[3] = target: T3, CEACAM8 on transfected HeLa cells; test: flow cytometry titration, HeLa-CEACAM8 transfectants, anti-human IgG4 FITC
Method: as §1, §2

[4] = target: T2, CEACAM5 on transfected HeLa cells; test: flow cytometry, transfected HeLa
[5] = target: T4, CEACAM6 on transfected HeLa cells; test: flow cytometry, HeLa-CEACAM6 transfectants, % positive cells

Row | binding result [1] | binding result [2] | binding result [3] | relative amount of cells bound [4] | binding result [5] | Binder
1 | no binding (tested: 100 ug/ml) | no binding (tested: 100 ug/ml) | no binding (tested: 100 ug/ml) |  |  | CP08H03/Vκ8 S29A (antibody, IgG4, V domains shown, IgG4 (S241P), kappa; also called CP08_H03/Parent VL; CP08_H03/Parental) VH: EVQLLESGGGLVQPGGSLRLSCAASGFIFSSHGMSWVRQAPGKGLEWVATISSGGTYTYYPDSVKGRFTISRDNSKNTLYLQMNSLKAEDTAMYYCARHDFDYFPYWFAHWGQGTLVTVSS VL: EIVLTQSPATLSLSPGERATLSCRANSAVSYMYWYQQKPGQAPRPWIYLTSNRATGVPARFSGSGSGTDYTLTISSLEPEDFAVYYCQQWSSNPPTFGQGTKLEIK
2 |  |  |  | 8.81 | no binding | chimeric antibody VH0/Vκ0 (antibody, IgG4, V domains shown, IgG4 (S241P), kappa; also called VH0/Vκ0 (control); Chimeric VH0/Vκ0) VH: EVQLVESGGDLVKPGGSLKLACAASGFIFSSHGMSWVRQTPDKRLEWVATISSGGTYTYYPDSVKGRFTISRDNDKNTLYLQMNSLKSEDTAMYYCARHDFDYDAAWFAYWGQGTLVTVSS VL: QIVLTQSPALMSASPGVKVTMTCSANSSVSYMYWYRQKPRSSPKPWIYLTSNLASGVPARFSGSGSGTSYSLTISSMEAEDAATYYCQQWSSNPPTFGSGTKLEIK

From patent publication US20250074980A1 (BRIGHAM AND WOMEN S HOSPITAL, published 2025)
